How the values were obtained:
[1] = target: adenylyl cyclase (AC) in rat dorsal root ganglia (DRG) lysates (rat); test: cell-based or functional assay
[2] = target: adenylyl cyclase (AC) in rat spinal cord lysates / membrane preparations (rat); test: cell-based or functional assay

Protein Associated with Myc (PAM), human, full length, purified from HeLa cells (from UniProt O75592 1-4678)
inhibition of Gαs-stimulated AC activity, DRG lysates, 30 nM PAM [1]: 32%
inhibition of Gαs-stimulated AC activity, spinal cord lysates of animals treated for 1 hour with formalin, 30 nM PAM [2]: 25%
inhibition of Gαs-stimulated AC activity, spinal cord lysates of control animals, 30 nM PAM [2]: 49%
inhibition of Gαs-stimulated AC activity, spinal cord lysates of rats 96 hours after zymosan injection, 30 nM PAM [2]: 70%
